Tests used:
[1] = molecular target: T1, Mss116 helicase core (D1D2, residues 88–597) (Saccharomyces cerevisiae, UniProt P15424); experiment: kinetic gel-based dsRNA unwinding; type: biochemical; conditions: 5 mM ATP-Mg, 2 uM D1D2, 125 nM labelled 12-bp dsRNA, pH 7.5, 22 °C
T1 construct: helicase core D1D2 (residues 88-597; D1, D2 and CTE), lacking unstructured N- (37-87) and C-terminal (598-664) extensions; expressed as N-terminal MalE (MBP) fusion in E. coli Rosetta 2; D1D2 used for crystals and kinetic unwinding
T1 sequence (P15424 88-597): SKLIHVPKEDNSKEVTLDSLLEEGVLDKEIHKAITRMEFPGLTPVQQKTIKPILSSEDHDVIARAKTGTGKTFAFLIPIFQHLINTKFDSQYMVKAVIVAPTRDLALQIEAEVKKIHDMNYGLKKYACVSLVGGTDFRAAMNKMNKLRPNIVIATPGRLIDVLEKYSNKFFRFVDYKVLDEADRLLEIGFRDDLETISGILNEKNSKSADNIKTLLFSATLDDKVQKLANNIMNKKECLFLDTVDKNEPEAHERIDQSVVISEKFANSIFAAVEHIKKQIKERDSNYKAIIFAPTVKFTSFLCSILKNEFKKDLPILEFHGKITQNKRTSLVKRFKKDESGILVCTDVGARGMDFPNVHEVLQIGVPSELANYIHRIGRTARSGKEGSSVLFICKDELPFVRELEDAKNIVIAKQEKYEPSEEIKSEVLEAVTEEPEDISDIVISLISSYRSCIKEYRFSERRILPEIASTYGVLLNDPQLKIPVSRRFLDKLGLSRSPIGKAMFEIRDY

[2] = molecular target: T2, Mss116 helicase core D1D2, MBP-tagged (Saccharomyces cerevisiae? (paper: yeast), UniProt P15424 88-597); experiment: gel-based fluorescence closed-state/unwinding assay; ADP-BeFx titrated (value is nucleotide concentration), 2 uM protein; 20 mM Tris-HCl pH 7.5, 100 mM KCl, 10% glycerol, 1 mM DTT, 5 mM MgCl2, 0.1 mg/ml BSA, 22 C, >=1 h; EMSA gels 6% at 4 C in 0.5x TBE; SEC with 200 mM KCl, no BSA; conditions: protein: recombinant; tags: N-terminal MBP (MalE); label: 5' FAM, 3' Iowa Black FQ; self-complementary, 2 strand copies, 12 bp
T2 sequence: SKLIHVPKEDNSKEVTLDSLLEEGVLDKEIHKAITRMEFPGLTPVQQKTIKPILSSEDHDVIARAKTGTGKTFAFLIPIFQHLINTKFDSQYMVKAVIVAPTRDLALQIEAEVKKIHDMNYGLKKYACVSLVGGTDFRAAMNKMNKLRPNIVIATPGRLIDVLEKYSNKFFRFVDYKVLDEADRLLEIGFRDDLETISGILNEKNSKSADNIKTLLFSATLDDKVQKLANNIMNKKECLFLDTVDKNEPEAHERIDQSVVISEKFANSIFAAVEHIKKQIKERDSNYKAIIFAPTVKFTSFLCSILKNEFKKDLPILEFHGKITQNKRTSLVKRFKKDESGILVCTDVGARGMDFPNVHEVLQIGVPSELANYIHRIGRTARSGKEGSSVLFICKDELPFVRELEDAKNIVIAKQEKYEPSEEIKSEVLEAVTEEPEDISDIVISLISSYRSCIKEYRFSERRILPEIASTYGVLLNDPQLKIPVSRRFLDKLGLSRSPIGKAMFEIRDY

[3] = molecular target: T3, Mss116 D2, MBP-tagged (Saccharomyces cerevisiae? (paper: yeast), UniProt P15424 342-597); experiment: EMSA; no nucleotide; Hill 1.5; 20 mM Tris-HCl pH 7.5, 100 mM KCl, 10% glycerol, 1 mM DTT, 5 mM MgCl2, 0.1 mg/ml BSA, 22 C, >=1 h; EMSA gels 6% at 4 C in 0.5x TBE; SEC with 200 mM KCl, no BSA; conditions: protein: recombinant; tags: N-terminal MBP (MalE); label: 5' FAM; self-complementary, 2 strand copies, 12 bp
T3 sequence: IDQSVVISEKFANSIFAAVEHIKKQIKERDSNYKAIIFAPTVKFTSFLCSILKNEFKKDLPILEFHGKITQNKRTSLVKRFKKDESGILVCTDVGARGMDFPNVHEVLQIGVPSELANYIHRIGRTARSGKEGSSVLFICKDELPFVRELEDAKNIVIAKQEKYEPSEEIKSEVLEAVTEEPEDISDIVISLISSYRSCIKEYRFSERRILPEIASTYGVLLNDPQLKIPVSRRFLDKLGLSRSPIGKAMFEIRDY

[4] = molecular target: T3, Mss116 D2, MBP-tagged; experiment: EMSA; no nucleotide; Hill 2.2; 20 mM Tris-HCl pH 7.5, 100 mM KCl, 10% glycerol, 1 mM DTT, 5 mM MgCl2, 0.1 mg/ml BSA, 22 C, >=1 h; EMSA gels 6% at 4 C in 0.5x TBE; SEC with 200 mM KCl, no BSA; conditions: protein: recombinant; tags: N-terminal MBP (MalE); label: 5' FAM; self-complementary, 2 strand copies, 12 bp
[5] = molecular target: T3, Mss116 D2, MBP-tagged; experiment: competition; unlabeled dsRNA displacing 250 nM 5' FAM-B-DNA from 500 nM MBP-D2; 20 mM Tris-HCl pH 7.5, 100 mM KCl, 10% glycerol, 1 mM DTT, 5 mM MgCl2, 0.1 mg/ml BSA, 22 C, >=1 h; EMSA gels 6% at 4 C in 0.5x TBE; SEC with 200 mM KCl, no BSA; conditions: protein: recombinant; tags: N-terminal MBP (MalE); self-complementary, 2 strand copies, 12 bp
[6] = molecular target: T4, Mss116 helicase core D1D2 (Saccharomyces cerevisiae? (paper: yeast), UniProt P15424 88-597); experiment: SEC; 5 mM ADP-BeFx; A260/A280 0.6, open; no complex maintained on column; 20 mM Tris-HCl pH 7.5, 100 mM KCl, 10% glycerol, 1 mM DTT, 5 mM MgCl2, 0.1 mg/ml BSA, 22 C, >=1 h; EMSA gels 6% at 4 C in 0.5x TBE; SEC with 200 mM KCl, no BSA; conditions: protein: recombinant; tags: expressed as MalE fusion; self-complementary, 2 strand copies, 12 bp
T4 sequence: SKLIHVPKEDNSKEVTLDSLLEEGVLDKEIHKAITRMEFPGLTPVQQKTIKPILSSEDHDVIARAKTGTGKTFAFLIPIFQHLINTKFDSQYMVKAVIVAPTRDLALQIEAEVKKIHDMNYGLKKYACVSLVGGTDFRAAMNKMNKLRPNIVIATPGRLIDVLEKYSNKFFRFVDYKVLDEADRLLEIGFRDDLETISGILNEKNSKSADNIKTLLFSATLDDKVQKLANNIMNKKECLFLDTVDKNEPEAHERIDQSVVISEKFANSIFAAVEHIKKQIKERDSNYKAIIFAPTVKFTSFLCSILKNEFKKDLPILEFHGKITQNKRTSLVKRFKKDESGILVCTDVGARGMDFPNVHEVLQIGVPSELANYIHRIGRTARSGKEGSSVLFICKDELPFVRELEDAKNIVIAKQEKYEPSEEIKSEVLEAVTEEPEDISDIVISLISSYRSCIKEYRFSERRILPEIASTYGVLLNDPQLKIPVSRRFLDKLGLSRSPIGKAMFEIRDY

[7] = molecular target: T3, Mss116 D2, MBP-tagged; experiment: competition; unlabeled B-DNA displacing 250 nM 5' FAM-dsRNA from 500 nM MBP-D2; 20 mM Tris-HCl pH 7.5, 100 mM KCl, 10% glycerol, 1 mM DTT, 5 mM MgCl2, 0.1 mg/ml BSA, 22 C, >=1 h; EMSA gels 6% at 4 C in 0.5x TBE; SEC with 200 mM KCl, no BSA; conditions: protein: recombinant; tags: N-terminal MBP (MalE); self-complementary, 2 strand copies, 12 bp
[8] = molecular target: T3, Mss116 D2, MBP-tagged; experiment: EMSA; no nucleotide; Hill 1.6; 20 mM Tris-HCl pH 7.5, 100 mM KCl, 10% glycerol, 1 mM DTT, 5 mM MgCl2, 0.1 mg/ml BSA, 22 C, >=1 h; EMSA gels 6% at 4 C in 0.5x TBE; SEC with 200 mM KCl, no BSA; conditions: protein: recombinant; tags: N-terminal MBP (MalE); label: 5' FAM; self-complementary, 2 strand copies, 12 bp

Nc1ncnc2c1ncn2[C@@H]1O[C@H](COP(=O)(O)OP(=O)(O)OP(=O)(O)O)[C@@H](O)[C@H]1O [ATP]
kinetic gel-based dsRNA unwinding [1]: only ATP, and not other NTPs, catalyzes the unwinding of the dsRNA

B1: 12-bp dsRNA, FAM/IBFQ (dsRNA)
RNA 1: CCCCCGCGGGGG
RNA 2: CCCCCGCGGGGG
apparent K (half saturation) [2]: 140 µM

B2: 12-bp A-DNA duplex, 5' FAM (dsDNA)
DNA 1: CCCCCGCGGGGG
DNA 2: CCCCCGCGGGGG
apparent K (half saturation) [3]: 410 nM

B3: 12-bp dsRNA, 5' FAM (dsRNA)
RNA 1: CCCCCGCGGGGG
RNA 2: CCCCCGCGGGGG
apparent K (half saturation) [4]: 400 nM

B4: 12-bp dsRNA, unlabeled (dsRNA)
RNA 1: CCCCCGCGGGGG
RNA 2: CCCCCGCGGGGG
Ki [5]: 860 ± 40 nM

B5: 12-bp B-DNA duplex, unlabeled (dsDNA)
DNA 1: GCGCGCGCGCGC
DNA 2: GCGCGCGCGCGC
binding result [6]: no binding
Ki [7]: 1700 ± 200 nM

B6: 12-bp B-DNA duplex, 5' FAM (dsDNA)
DNA 1: GCGCGCGCGCGC
DNA 2: GCGCGCGCGCGC
apparent K (half saturation) [8]: 510 nM
